Reference: the Human Domainome abundance scans (Beltran et al. 2025)

B1: RanBP-type and C3HC4-type zinc finger-containing protein 1, residues 369 to 411; numbered along this chain, Q9BYM8 (parent)
chain: YHCKTPDCKGWCFFEDDVNEFTCPVCFHVNCLLCKAIHEQMNC

Variants of: B1
Test: abundance fitness (aPCA) (normalised: wild type 0, dead -1); higher = more abundant; growth selection in yeast, the domain comes from the species named
Conditions: Homo sapiens

Abundance fitness: each site, then its substitutions
T5: P -0.764 | M 0.003 | Y -0.169 | S -0.054 | I -0.533 | C -0.063 | G -0.308 | A -0.131
D17: C -0.215 | G 0.116 | K 0.079 | E 0.06 | I -0.265 | A -0.038
C23: W -0.741 | A -0.794 | L -0.89 | Y -0.677 | H -0.786 | G -0.891
C8: V -0.999 | Q -0.736 | T -0.919 | A -0.761 | F -0.554 | E -0.784
E20: V -0.391 | I -0.465 | H -0.332 | M -0.1 | S -0.222 | P -0.83 | D -0.347 | A -0.311 | C -0.303
K9: Y -0.485 | N -0.19 | T 0.056 | Q -0.033 | F -0.378 | A 0.029
D16: C -0.182 | H -0.045 | M -0.244 | I -0.458 | S -0.14 | G -0.075 | P 0.113 | R 0.044 | K 0.146
E39: Q -0.012 | D 0.03 | F -0.213 | G 0.024 | P 0.029 | M -0.143 | C -0.27 | N -0.081 | A -0.09 | K -0.021
F27: M -0.159 | T -0.068 | V -0.536 | K 0.108 | E -0.184 | D -0.004 | S -0.11 | I -0.571 | Q 0.059
M41: E 0.135 | Y -0.173 | W -0.035 | P 0.059 | L -0.076 | C -0.004 | D 0.094 | S 0.156 | A 0.178
K4: F 0.028 | P -0.527 | R 0.021 | H -0.174 | G -0.222 | S -0.14 | Y -0.084 | V 0.051 | I -0.206 | N -0.134 | M 0.201
K35: H -0.023 | W -0.385 | S -0.014 | I -0.843 | L -0.321 | M -0.026 | A -0.147
N42: F -0.415 | I -0.231 | G 0.161 | A 0.106 | K -0.064 | S 0.006 | L -0.196 | H 0.138 | W -0.069 | D 0.025
C34: Y -0.875 | M -0.881 | E -0.312 | H -0.501
H28: T -0.041 | C -0.205 | I -0.224 | V -0.298 | G -0.103 | E 0.005 | S -0.029 | R 0.011 | A 0.081 | W -0.592 | M -0.065 | D -0.661 | P -0.912
H2: R 0.035 | F 0.029 | D -0.275 | L -0.233 | T -0.149 | E -0.554
V29: E -0.34 | F -0.54 | D -0.414 | G -0.562 | K -0.109 | C -0.265 | P -0.624 | L -0.215
H38: M -0.89 | C -0.774 | E -0.46 | R -0.699 | N -0.76 | W -1 | K -0.707 | I -0.881 | G -0.536 | D -0.482
E15: D -0.201 | L -0.423 | K -0.169 | S -0.254 | V -0.238 | C -0.32
V18: P 0.048 | K -0.001 | E 0.001 | M -0.14 | F -0.272 | D -0.222 | G -0.276 | R 0.069
C26: T -0.921 | G -0.757 | N -0.708 | A -0.713 | P -1 | R -0.754
D7: L -0.2 | W -0.469 | V -0.597 | K -0.095 | I -0.812 | S -0.165
L33: H -0.062 | C -0.213 | W -0.262 | M 0.033 | T -0.026 | S -0.065 | F -0.313 | E -0.073 | I -0.158
F21: T 0.03 | E -0.501 | H -0.665 | Y -0.06 | G -0.291 | Q -0.205 | N -0.321 | V 0.06 | I -0.039
G10: D -0.764 | H -0.359 | K -0.621 | M -0.563 | L -0.945 | E -0.573 | R -0.66 | A -0.541 | Y -0.343 | S -0.587
P24: D -0.36 | N -0.233 | I -1.09 | Q -0.099 | L -0.681 | H -0.676 | T -0.324 | K -0.287
P6: W -0.629 | I -0.411 | Q -0.063 | E -0.185 | G -0.494 | F -0.493 | M -0.23 | A -0.115 | L -0.365
N19: W -0.152 | S 0.024 | A -0.023 | E 0.042 | P -0.276 | H -0.264 | D -0.052 | C -0.118 | T 0.09
A36: K -0.084 | P -0.333 | G 0.051 | N -0.111 | C -0.154 | R -0.015 | D -0.053 | F -0.848 | I -0.331
C43: P -0.211 | E -0.427 | G -0.29 | T -0.216 | Q -0.357
T22: H -0.032 | N -0.32 | C -0.149 | E -0.166 | V -0.254 | A -0.296 | W -0.422 | M -0.29
Y1: K -0.336 | D 0.004 | M 0.028 | S -0.409 | H -0.256 | W -0.437 | N -0.408 | V -0.265 | L -0.453 | T -0.24
I37: P -0.133 | C -0.222 | S -0.183 | D -0.107 | N -0.269 | Y -0.464 | K -0.208
W11: T 0.176 | G -0.172 | N 0.063 | L 0.044 | A -0.006 | E 0.184 | S 0.132
L32: D -0.531 | T -0.015 | W -0.417 | Q -0.168 | E -0.366 | G -0.369 | K 0.037 | R 0.026 | N -0.131 | Y -0.302
N30: G -0.811 | Q -0.788 | M -1.16 | L -1.22 | K -0.781 | W -0.855 | D -0.79 | Y -0.614 | T -0.57
C3: F -1.12 | R -0.906 | T -0.937 | M -0.978 | W -0.879 | D -0.969 | I -0.593 | P -1.13 | L -0.884 | V -1.32
C31: Q -0.521 | V -0.76 | Y -0.154 | T -0.451 | K -0.758 | M -0.725 | W -0.738 | A -0.805 | R -0.558 | H -0.469 | L -1.02
V25: R -0.242 | H -0.093 | G -0.49 | C -0.181 | L -0.113 | Q -0.17 | W -0.406
C12: V 0.071 | S 0.252 | G -0.274
Q40: S 0.023 | W -0.542 | G 0.129
F13: E 0.428 | A 0.124 | C -0.111 | S 0.066
F14: Q -0.295 | W 0.075 | S -0.165 | G 0.162
